In the supplement of paper PMC7877785:
± gives the uncertainty stated by the source.

Assay: self-splicing fitness, log relative to wild type (ln ratio); higher = more splicing; Tetrahymena group I intron in knt gene, E. coli kanamycin selection, DiMSum; sequences stand for … in CUCUCU…GGAGGGAAAAGUUAUCAGGCAUGCACCUGGUAGCUAGUCUUUAAACCAAUAGAUUGCAUCGGUUUAAAAGGCAAGACCGUCAAAUUGCGGGAAAGGGGUCAACAGCCGUUCAGUACCAAGUCUCAGGGGAAACUUUGAGAUGGCCUUGCAAAGGGUAUGGUAAUAAGCUGACGGACAUGGUCCUAACCACGCAGCCAAGUCCUAAGUCAACAGAUCUUCUGUUGAUAUGGAUGCAGUUCACAGACUAAAUGUCGGUCGGGGAAGAUGUAUUCUUCUCAUAAGAUAUAGUCGGACCUCUCCUUAAUGGGAGCUAGCGGAUGAAGUGAUGCAACACUGGAGCCGCUGGGAACUAAUUUGUAUGCGAAAGUAUAUUGAUUAGUUUUGGAGUACUCGUGGUCG
Outline: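 Six replicate transformations of E. coli BL21(DE3) with a pET-22b(+) library were grown overnight at 37°C or 30°C. The library randomised all eight P1ex-region intron nucleotides, the intron lying in the knt kanamycin-resistance gene, and plates were LB agar with or without 25 μg/mL kanamycin plus 100 μg/mL carbenicillin, 50 μM IPTG and 0.2% rhamnose. Pooled colonies were amplicon-sequenced on an Illumina HiSeq 2500, and fitness is the DiMSum error-weighted combination of wild-type-normalised replicate fold changes, kanamycin versus none.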

Sequence	self-splicing fitness (ln) (30 °C)	self-splicing fitness (ln) (37 °C)
CGACAGCAAUAUUACGUUCG	-2.52 ± 0.15	-2.18 ± 0.22
CGACAGCAAUAUUACGUUUA	-1.81 ± 0.11	-0.394 ± 0.087
CGAGAGCAAUAUUACGAACA	-2.54 ± 0.3	-2.84 ± 0.41
CGAGAGCAAUAUUACGAAGC	-3.7 ± 0.28	-2.02 ± 0.27
CGAGAGCAAUAUUACGACCG	-3.71 ± 0.43	-1.84 ± 0.33
CGAGAGCAAUAUUACGAGCU	-4.6 ± 0.42	-3.02 ± 0.47
CGAGAGCAAUAUUACGAGUG	-3.53 ± 0.26	-0.803 ± 0.14
CGAGAGCAAUAUUACGAUAG	-2.68 ± 0.18	-2.11 ± 0.18
CGAGAGCAAUAUUACGCCGU	-2.28 ± 0.49	–
CGAGAGCAAUAUUACGCCUG	-3.12 ± 0.25	-1.73 ± 0.28
CGAGAGCAAUAUUACGCGUC	-3.01 ± 0.36	-2.64 ± 0.42
CGAGAGCAAUAUUACGCGUU	-2.8 ± 0.36	-2.46 ± 0.49
CGAGAGCAAUAUUACGCUUC	-2.04 ± 0.37	-1.61 ± 0.31
CGAGAGCAAUAUUACGGAAA	-1.65 ± 0.33	–
CGAGAGCAAUAUUACGGCGA	-2.72 ± 0.3	-1.28 ± 0.31
CGAGAGCAAUAUUACGGGAU	-2.56 ± 0.13	-2.53 ± 0.23
CGAGAGCAAUAUUACGGGGC	-2.35 ± 0.31	-2.61 ± 0.39
CGAGAGCAAUAUUACGGUGU	-3.56 ± 0.21	-2.73 ± 0.24
CGAGAGCAAUAUUACGUAGC	-4.39 ± 0.42	-2.52 ± 0.27
CGAGAGCAAUAUUACGUCAU	-3.96 ± 0.4	-1.78 ± 0.33

Sequence	self-splicing fitness (ln) (30 °C)	self-splicing fitness (ln) (37 °C)
CGAGAGCAAUAUUACGUUAA	-2.26 ± 0.22	–
CGAGAGCAAUAUUACGUUCA	-2.34 ± 0.21	-2.69 ± 0.31
CGAGAGCAAUAUUACGUUCG	-3.2 ± 0.2	-1.73 ± 0.23
CGAUAGCAAUAUUACGAACC	-2.68 ± 0.27	-0.913 ± 0.28
CGAUAGCAAUAUUACGAAGA	–	-2.21 ± 0.4
CGAUAGCAAUAUUACGACGC	-2.34 ± 0.39	0.00994 ± 0.27
CGAUAGCAAUAUUACGACUA	-1.8 ± 0.26	-2.13 ± 0.23
CGAUAGCAAUAUUACGACUG	-0.203 ± 0.083	0.803 ± 0.1
CGAUAGCAAUAUUACGACUU	-1.4 ± 0.088	-1.47 ± 0.13
CGAUAGCAAUAUUACGAUAA	-3.37 ± 0.27	-2.2 ± 0.35
CGAUAGCAAUAUUACGCCGU	-2.9 ± 0.15	-1.78 ± 0.14
CGAUAGCAAUAUUACGCGGC	-2.93 ± 0.41	–
CGAUAGCAAUAUUACGCGUG	-1.89 ± 0.092	-0.431 ± 0.1
CGAUAGCAAUAUUACGCUUC	-3.11 ± 0.26	-2.99 ± 0.47
CGAUAGCAAUAUUACGGAUA	–	-0.838 ± 0.19
CGAUAGCAAUAUUACGGCCU	-1.67 ± 0.19	-0.545 ± 0.2
CGAUAGCAAUAUUACGGCGG	-0.197 ± 0.077	0.211 ± 0.1
CGAUAGCAAUAUUACGGUCC	-1.2 ± 0.21	-0.541 ± 0.23
CGAUAGCAAUAUUACGGUCG	-4.36 ± 0.29	-3.39 ± 0.35
CGAUAGCAAUAUUACGGUGA	-2.74 ± 0.2	-1.94 ± 0.19
